Substrate in the data set: Nc1ncnc2c1ncn2[C@@H]1O[C@H](COP(=O)(O)OP(=O)(O)OP(=O)(O)O)[C@@H](O)[C@H]1O
In words: in vitro enzymatic assay, Km app for ATP. Type of data set: biochemical, Homo sapiens. The note with it: ATP-binding site.

B1: ROS1 kinase domain G2032R mutant (Homo sapiens; G2032R) (protein)
chain: IENLPAFPREKLTLRLLLGSGAFGEVYEGTAVDILGVGSGEIKVAVKTLKKGSTDQEKIEFLKEAHLMSKFNHPNILKQLGVCLLNEPQYIILELMEGRDLLTYLRKARMATFYGPLLTLVDLVDLCVDISKGCVYLERMHFIHRDLAARNCLVSVKDYTSPRIVKIGDFGLARDIYKNDYYRKRGEGLLPVRWMAPESLMDGIFTTQSDVWSFGILIWEILTLGHQPYPAHSNLDVLNYVQTGGRLEPPRNCPDDLWNLMTQCWAQEPDQRPTFHRIQDQLQLFRNFFLNSIYKSRDE
On to B1, for which the Km was 22 µM.

B2: ROS1 kinase domain (nonmutant) (Homo sapiens) (protein)
chain: IENLPAFPREKLTLRLLLGSGAFGEVYEGTAVDILGVGSGEIKVAVKTLKKGSTDQEKIEFLKEAHLMSKFNHPNILKQLGVCLLNEPQYIILELMEGGDLLTYLRKARMATFYGPLLTLVDLVDLCVDISKGCVYLERMHFIHRDLAARNCLVSVKDYTSPRIVKIGDFGLARDIYKNDYYRKRGEGLLPVRWMAPESLMDGIFTTQSDVWSFGILIWEILTLGHQPYPAHSNLDVLNYVQTGGRLEPPRNCPDDLWNLMTQCWAQEPDQRPTFHRIQDQLQLFRNFFLNSIYKSRDE
For B2, the Km amounted to 65 µM.

For the origin of these results see article PMC3878821.
